Data on three molecules can be found in paper PMC4258549 (Journal of immunology (Baltimore, Md. : 1950), 2014).

The target in assay [1] is T1, biotinylated C4b (human, biotin through Maleimide-PEG2-Biotin (residue not stated)). The assay is described as follows: AlphaScreen or HTRF. In general terms: Bead proximity is the source of the signal in Alpha formats.
Assay [2] addresses T1, biotinylated C4b. The experiment in a line: SPR. For orientation: In SPR one partner is held on a chip, and binding of the other changes the refractive index at the surface.

B1: Eap12 (Eap fragment of domains 1 and 2) (domain or fragment)
chain: GHSNIQIPYTITVNGTSQNILSSLTFNKNQNISYKDIENKVKSVLYFNRGISDIDLRLSKQAEYTVHFKNGTKRVIDLKSGIYTADLINTSDIKAISVNVDTKKQPKDKAKANVQVPYTITVNGTSQNILSNLTFNKNQNISYKDLEGKVKSVLESNRGITDVDLRLSKQAKYTVNFKNGTKKVIDLKSGIYTANLINSSDIKSININVDTKKHIENKAKR
With B1, the “fold weaker binding than Eap” value in assay [1] was approximately 100 fold.

B2: Eap23 (Eap fragment of domains 2 and 3) (domain or fragment)
chain: ANVQVPYTITVNGTSQNILSNLTFNKNQNISYKDLEGKVKSVLESNRGITDVDLRLSKQAKYTVNFKNGTKKVIDLKSGIYTANLINSSDIKSININVDTKKHIENKAKRNYQVPYSINLNGTSTNILSNLSFSNKPWTNYKNLTSQIKSVLKHDRGISEQDLKYAKKAYYTVYFKNGGKRILQLNSKNYTANLVHAKDVKRIEITVKTGTKAKADRYV
With B2, the Kd (commonly a measure of binding affinity in units of concentration) in assay [1] was found to be 293 ± 38 nM.

B3: Eap34 (Eap fragment of domains 3 and 4) (domain or fragment)
chain: NYQVPYSINLNGTSTNILSNLSFSNKPWTNYKNLTSQIKSVLKHDRGISEQDLKYAKKAYYTVYFKNGGKRILQLNSKNYTANLVHAKDVKRIEITVKTGTKAKADRYVPYTIAVNGTSTPILSKLKISNKQLISYKYLNDKVKSVLKSERGISDLDLKFAKQAKYTVYFKNGKKQVVNLKSDIFTPNLFSAKDIKKIDIDVKQYTKSKKK
The molecule B3 had a Kd in assay [1] of 525 ± 65 nM. Also, the IC50 (in general, the concentration that gives 50% inhibition) in assay [2] is approximately 870 nM.
